Our source for the percent reduction of co-precipitation, wt cells values is PMC3020918.

This assay addresses myc-Snc2p (S. cerevisiae) (UniProt P33328). Nature of the assay: co-IP.
Chain of UniProt P33328 (P33328 whole entry): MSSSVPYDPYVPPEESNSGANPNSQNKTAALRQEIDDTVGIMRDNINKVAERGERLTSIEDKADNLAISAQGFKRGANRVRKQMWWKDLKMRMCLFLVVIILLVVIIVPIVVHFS

The substance “Sso1/2p (endogenous) (from UniProt P32867 1-290) (natural protein)” yielded a percent reduction of co-precipitation, wt cells at 37°C against 30°C of 10%.
